For one experiment, the target named is T1, Rat liver VDAC (Rattus norvegicus, UniProt Q9Z2L0).
T1 construct: Rat liver VDAC was purified in accordance with a report made by Shimizu et al; from tissue; host or cells: rat liver (mitochondria)
The experiment can be described thus: VDAC activity: sucrose uptake into VDAC liposomes (liposomal swelling, light scatter at 520 nm). Type of experiment: biochemical. The conditions noted are these: for Inhibition of VDAC activity (VDAC-mediated sucrose uptake): 20 μg/ml protein or polypeptide. How it is done:
Purified VDAC was reconstituted in small unilamellar vesicles by the ultrasonic freeze-thaw procedure described in a report made by Shimizu et al. [Nature, 399, 483-487 (1999)]. Sucrose uptake experiment was performed by assessing liposomal swelling.
Liposomes produced at pH 5.2 were incubated at 25° C. in 1 ml of liposome buffer together with rBcl-xL, rΔ21, rBax or a polypeptide for 3 minutes. Here, acidic pH was a required condition for efficient uptake of rBcl-xL and rBax into the liposomes. Thereafter, sucrose was added up to a concentration of 50 mM to the mixture, and the liposomal swelling was assessed by the decrease in light scatter at a wavelength of 520 nm using a spectrophotometer (F-4500, manufactured by Hitachi, Ltd.). Sucrose uptake was also estimated from ^14C-sucrose uptake as described in the report made by Shimizu et al. [Nature, 399, 483-487(1999)].
Next, the functional role of the BH4 domain in the regulation of VDAC activity was examined. VDAC activity was measured by assessing sucrose uptake into VDAC-containing liposomes, using the two procedures: a method with radiolabeled sucrose described in a report made by Shimizu et al. [Nature, 399, 483-487 (1999)], and a method for measuring a sucrose uptake-dependent liposomal swelling that was monitored by decrease in light scatter. Since sucrose-uptake-dependent liposomal swelling was confirmed by microscopic observation or flow cytometric analysis, it is thought that the liposomal swelling is based on the rapid influx of sucrose and water through large VDAC pores which overwhelmed osmosis-dependent efflux of water.

In another experiment the target is T2, VDAC (Rattus norvegicus, UniProt Q9Z2L0).
T2 construct: from tissue; host or cells: rat liver (purified VDAC, or isolated mitochondria)
T2 sequence (Q9Z2L0 whole entry): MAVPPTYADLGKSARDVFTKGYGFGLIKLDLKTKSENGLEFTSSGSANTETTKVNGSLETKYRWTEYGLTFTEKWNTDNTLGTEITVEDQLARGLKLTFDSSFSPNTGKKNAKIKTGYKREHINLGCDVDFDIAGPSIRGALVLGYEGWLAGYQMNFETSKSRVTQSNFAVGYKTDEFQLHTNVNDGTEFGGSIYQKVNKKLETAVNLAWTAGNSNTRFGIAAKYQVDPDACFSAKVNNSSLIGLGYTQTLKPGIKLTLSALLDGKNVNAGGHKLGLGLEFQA
The experiment is described as follows: Co-immunoprecipitation with VDAC and Western blot. In kind it is binding. The following applies: 20 μg/ml protein or polypeptide. How it is done:
Purified VDAC (20 μg/ml) was incubated with recombinant BCl-xL (rBcl-xL) and recombinant Δ21 (rΔ21), and the resulting mixture was immunoprecipitated with anti-Bcl-xL (L19) antibody and normal rabbit IgG. In order to detect interactions between polypeptide and VDAC, isolated mitochondria (1 mg) were incubated with 20 μg of Bcl-xL N-terminal polypeptide or Bcl-xL C-terminal polypeptide for 5 minutes. Thereafter, the resulting mitochondria were pelleted, washed, and suspended in a lysis buffer (10 mM HEPES, pH 7.4, 142.5 mM KCl, 5 mM MgCl2, 1 mM EGTA and 0.5% NP40) in the presence of proteinase inhibitors (0.1 mM p-APMSF, 10 μg/ml aprotinin, 1 μg/ml chymostatin, 1 μg/ml leupeptin, 1 μg/ml antipain, 1 μg/ml pepstatin), followed by ultrasonic disruption. Immunoprecipitation was carried out with anti-Bcl-x polyclonal antibodies corresponding to the polypeptides used. Co-immunoprecipitation of VDAC was detected by Western blotting using an anti-VDAC antibody.

The test system of a further experiment is HeLa cells. The experiment is described as follows: VP16-induced apoptosis in HeLa cells in the presence of TAT-BH4 polypeptide. Type of experiment: cell-based, human. The following applies: VP16 for 24 hours, polypeptide in the culture medium. How it is done:
FIG. 17 is a diagram showing the results for evaluating the effect of TAT-BH4 polypeptide on VP16-induced apoptosis. Cells were treated with VP16 at the indicated concentrations for 24 hours in the presence of 100 μg/ml TAT-BH4 polypeptide (□) or TAT polypeptide (∘) or absence of polypeptide (●) and then stained with Hoechst 33342. Apoptotic cell death was determined by the morphology of nuclei using a fluorescence microscope. Data shown are from one of three independent experiments.
FIG. 18 is a diagram showing the results for evaluating the dose-dependent inhibition of VP16-induced apoptosis by TAT-BH4 polypeptide. […] Apoptotic cell death was determined in the same manner as in FIG. 17.
The inhibition and promotion of apoptosis can be evaluated by, for instance, the following method, without being limited thereto.
Therefore, in order to facilitate the transport of the BH4 polypeptide into cells, the above-mentioned TAT-BH4 polypeptide of 30 amino acid residues was synthesized, the polypeptide comprising N-terminal eosin-conjugated cystein and the PTD of HIV TAT protein fused to the Bcl-xL BH4 polypeptide. HeLa cells were treated with 200 μM VP16 in the presence of the TAT-BH4 polypeptide, and then observed by an optical phase-contrast microscope and a fluorescence microscope, respectively. […]

Experiment [1] has as its system Rat liver mitochondria. The experiment is described as follows: Ca2+-induced ΔΨ loss in isolated mitochondria (Rhodamine 123 uptake). In kind it is biochemical. The following applies: for Inhibition of Ca2+-induced mitochondrial ΔΨ loss: mitochondria 1 mg/ml, 40 μM Ca2+, 20 μg/ml protein or polypeptide. How it is done: (§1) Rat liver mitochondria (1 mg protein/ml) isolated in accordance with a report made by Shimizu et al. [Oncogene, 13, 21-29(1996)] were incubated at 25° C. in a medium containing 0.3 M mannitol, 10 mM HEPES/K^+ (pH 7.4), 0.1% fatty acid-free BSA, 1 mM potassium phosphate, 40 μM CaCl2 and 4.2 mM succinate for energization in the presence or absence of recombinant proteins.
ΔΨ was assessed by measuring the uptake of Rhodamine 123 (Rh123) as previously described by Shimizu et al. [Oncogene, 13, 21-29(1996)].
Isolated mitochondria (1 mg/ml) were incubated with 20 μg/ml Bcl-xL BH4 polypeptide in the presence of 40 μM Ca^2+, and thereafter Rhodamine 123 intensity was continuously monitored. The results are shown in the left panel of FIG. 14. In addition, isolated mitochondria (1 mg/ml) were incubated with 20 μg/ml BH4 polypeptide of Bcl-xL and any of various mutant polypeptides in the presence of 40 μM Ca for 15 minutes, and thereafter ΔΨ was measured by Rhodamine 123 intensity. The results are shown in the right panel of FIG. 14.

Another experiment addresses T3, Bax (Homo sapiens, UniProt Q07812).
T3 construct: made in house
The experiment can be described thus: Binding of BH4 polypeptide to Bax.

Experiment [2] relates to Rat liver mitochondria. The experiment is described as follows: Ca2+-induced cytochrome c release from isolated mitochondria (Western blot). The following applies: mitochondria 1 mg/ml, 40 μM Ca2+, 20 μg/ml protein. Type of experiment: biochemical. How it is done: as §1
The cytochrome c release was evaluated by centrifuging the above-mentioned mitochondria, re-suspending the resulting pellets in an RIPA buffer to give mitochondria suspension, and subjecting the mitochondria suspension and supernatant to Western blot analysis using anti-cytochrome c antibodies.

Experiment [3] has as its target rat liver VDAC (voltage-dependent anion channel) (rat, UniProt Q9Z2L0 2-283). The experiment is described as follows: cell-based or functional assay.

We go through 14 molecules from patent US20030152946A1, “Bh4-fused polypeptides” (priority 1999, published 2003).

T1 sequence (Q9Z2L0 whole entry): as above
rat liver VDAC (voltage-dependent anion channel), sequence (Q9Z2L0 2-283): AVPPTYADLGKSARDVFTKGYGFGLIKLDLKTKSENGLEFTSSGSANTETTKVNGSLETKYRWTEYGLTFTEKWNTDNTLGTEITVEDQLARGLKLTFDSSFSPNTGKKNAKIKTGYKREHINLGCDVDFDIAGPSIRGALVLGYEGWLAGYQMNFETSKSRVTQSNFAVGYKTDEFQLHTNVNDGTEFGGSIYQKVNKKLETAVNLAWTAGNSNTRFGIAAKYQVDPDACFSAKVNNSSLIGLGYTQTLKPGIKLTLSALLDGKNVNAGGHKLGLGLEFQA
T3 sequence (Q07812 whole entry): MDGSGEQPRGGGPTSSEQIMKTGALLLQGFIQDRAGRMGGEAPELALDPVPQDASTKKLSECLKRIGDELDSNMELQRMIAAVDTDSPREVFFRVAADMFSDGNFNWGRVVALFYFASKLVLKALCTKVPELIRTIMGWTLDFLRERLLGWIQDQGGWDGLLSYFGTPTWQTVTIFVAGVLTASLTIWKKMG

For “FL1213GG: F12L13 mutant of human Bcl-xL BH4 polypeptide (FIG. 13) (SNRELVVDGGSYKLSQKGYS) [reference compound]”, the “Inhibition of VDAC activity (VDAC-mediated sucrose uptake)” value (“Inhibition of VDAC activity” below) with Rat liver VDAC (VDAC liposomes, 50 mM sucrose) was “did not inhibit”. As to “L17W: Bcl-xL BH4 polypeptide with one amino acid substitution at L17 (SNRELVVDFLSYKWSQKGYS) [Polypeptide L17W, reference compound]”, the “VDAC inhibitory activity as compared to VDAC inhibition of the normal BH4 polypeptide (fraction in words)” value in the experiment with Rat liver VDAC (20 μg/ml polypeptide, 50 mM sucrose) is given as “about one-half”. On to “LV89GG: L8V9 mutant of human Bcl-xL BH4 polypeptide (FIG. 13) (SNREGGVDFLSYKLSQKGYS) [reference compound]”, for which the “Inhibition of VDAC activity” value with Rat liver VDAC (VDAC liposomes, 50 mM sucrose) is on record as “did not inhibit”. Turning to “LV89VF: L8V9 mutant of human Bcl-xL BH4 polypeptide (FIG. 13) (SNREVFVDFLSYKLSQKGYS) [reference compound]”, in the experiment with Rat liver VDAC (VDAC liposomes, 50 mM sucrose), the “Inhibition of VDAC activity” value is “did not inhibit”. With “N-terminal fragment (amino acid nos: 2 to 9) of Bcl-xL: N-terminal (amino acid nos: 2 to 19) polypeptide of Bcl-xL purchased from Santa Cruz Biotechnology (SQSNRELVVDFLSYKLSQ) [reference compound]”, the “Interaction with VDAC (co-immunoprecipitation)” value in the experiment with VDAC is recorded as “detected, although to a lesser extent”. Regarding “SNRELVVDFLSYKLSQKGYS (listed as Homo sapiens) [BH4 polypeptide, amino acid nos: 4 to 23 of human Bcl-xL]”, in the experiment with HeLa cells, the “Inhibition of VP16-induced apoptosis” value is “no effect”. Also, the “Closure of VDAC” value with Rat liver VDAC (20 μg/ml BH4 polypeptide) is “complete closure”. Further, the “Inhibition of rBax-induced enhancement of VDAC activity” value in the experiment with Rat liver VDAC (VDAC liposomes, 5 μg/ml rBax, 50 mM sucrose) was “inhibited the rBax-induced enhancement of VDAC activity in a dose-dependent manner”. Moreover, the “Inhibition of VDAC activity” value with Rat liver VDAC (VDAC liposomes, 50 mM sucrose) was “inhibited the VDAC activity in a concentration-dependent manner”; with Rat liver VDAC (VDAC liposomes, 50 mM sucrose, listed as BH4 polypeptide of BCl-xL), “significantly inhibits”. Also, the “Molar concentration needed to inhibit ΔΨ loss and VDAC activity, relative to recombinant Bcl-xL” value in the experiment with Rat liver mitochondria [1] (applies to Ca2+-induced ΔΨ loss and VDAC activity) is reported as “about 25 fold”. Moreover, in the experiment with Rat liver mitochondria [1], the “Inhibition of Ca2+-induced mitochondrial ΔΨ loss” value is “significantly inhibits”. The “Binding to Bax” value with Bax is “did not bind”.

Consider “TGYDNREIVMKYIHYKLSQRGYEW (listed as Homo sapiens) [BH4 polypeptide derived from Bcl-2, amino acid nos: 7 to 30 of human Bcl-2]”, for which, in the experiment with Rat liver VDAC (VDAC liposomes, 50 mM sucrose), the “Inhibition of VDAC activity” value is “inhibited VDAC activity”. The same measure, in the same setting: the value for “VAQDTEEVFRSYVFYRHQQEQEAE [polypeptide derived from Bak, reference compound]” was “inactive”. For “eosin-C-RKKRRQRRR [TAT-only polypeptide, reference compound]”, the “Inhibition of VP16-induced apoptosis” value with HeLa cells was “did not significantly inhibit”. As to “rBcl-xL: recombinant human Bcl-xL expressed as GST fusion in Escherichia coli, GST cleaved with thrombin”, the “Inhibition of VDAC activity” value with Rat liver VDAC (VDAC liposomes, 50 mM sucrose) is reported as “inhibited”. Further, in the experiment with Rat liver VDAC (VDAC-free liposomes), the “Effect on VDAC-free liposomes” value is given as “did not show any significant effect”. Also, the “Inhibition of Ca2+-induced mitochondrial ΔΨ loss” value in the experiment on Rat liver mitochondria [1] was “inhibited”. Moreover, the “Inhibition of Ca2+-induced cytochrome c release” value in the experiment on Rat liver mitochondria [2] is listed as “inhibited”. Further, in the experiment with VDAC, the “Interaction with VDAC (co-immunoprecipitation)” value is “interacted with VDAC to a similar level”. Consider “rΔ21: recombinant human Bcl-xL lacking the N-terminus 21 amino acids residues (BH4 deletion mutant)”, for which the “Inhibition of VDAC activity” value with Rat liver VDAC (VDAC liposomes, 50 mM sucrose) is recorded as “did not affect”. The “Inhibition of Ca2+-induced mitochondrial ΔΨ loss” value in the experiment on Rat liver mitochondria [1] is given as “did not virtually show inhibitory activity”. The “Inhibition of Ca2+-induced cytochrome c release” value with Rat liver mitochondria [2] is recorded as “did not virtually show inhibitory activity”. On to “ΔFL: F12L13 mutant of human Bcl-xL BH4 polypeptide (FIG. 13) (SNRELVVDSYKLSQKGYS) [reference compound]”, for which, in the experiment with Rat liver VDAC (VDAC liposomes, 50 mM sucrose), the “Inhibition of VDAC activity” value was “did not inhibit”.

“ΔLV: L8V9 mutant of human Bcl-xL BH4 polypeptide (FIG. 13) (SNREVDFLSYKLSQKGYS) [reference compound]”: the “Inhibition of VDAC activity” value with Rat liver VDAC (VDAC liposomes, 50 mM sucrose) is “did not inhibit”.

B1: Human Bcl-xL BH4 polypeptide (amino acid nos: 4 to 23 of human Bcl-xL) (peptide)
peptide: SNRELVVDFLSYKLSQKGYS
As for B1, in experiment [3], the “molar concentration needed to inhibit Ca2+-induced membrane potential loss and VDAC activity, relative to recombinant Bcl-xL” value is ~25 fold.
